Source: PMC8865373 (Biochemistry, 2021)
Where no end group is shown, it is not given here. [ ]: non-standard residue; d: D form. pS = N[C@@H](COP(=O)(O)O)C(=O)O

T1: TAZ2 domain (residues 1764–1855) of wild-type mouse CBP (mouse, UniProt P45481 1764-1855)
T1 sequence (looked up): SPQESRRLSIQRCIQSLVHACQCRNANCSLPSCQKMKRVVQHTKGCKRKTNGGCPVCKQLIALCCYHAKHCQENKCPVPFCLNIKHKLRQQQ

B1: doubly-phosphorylated HPV16 ppE7(1–51) (domain or fragment)
chain: MHGDTPTLHEYMLDLQPETTDLYCYEQLND[pS][pS]EEEDEIDGPAGQAEPDRAH
B2: ppE7(1–51)(L15V) (domain or fragment)
chain: MHGDTPTLHEYMLDVQPETTDLYCYEQLND[pS][pS]EEEDEIDGPAGQAEPDRAH
B3: E7(1–51) C24A/A50C labeled with Alexa fluor 594, unphosphorylated (domain or fragment)
chain: MHGDTPTLHEYMLDLQPETTDLYAYEQLNDSSEEEDEIDGPAGQAEPDRC(Alexa Fluor 594)H
B4: HPV16 E7(1–51), unphosphorylated (domain or fragment)
chain: MHGDTPTLHEYMLDLQPETTDLYCYEQLNDSSEEEDEIDGPAGQAEPDRAH

Key:
[1] = molecular target: T1, TAZ2 domain (residues 1764–1855) of …; test: NMR titration
[2] = molecular target: T1, TAZ2 domain (residues 1764–1855) of …; test: fluorescence polarisation
[3] = molecular target: T1, TAZ2 domain (residues 1764–1855) of …; test: NMR titration; remark: listed apart in the source
[4] = molecular target: T1, TAZ2 domain (residues 1764–1855) of …; test: fluorescence polarisation; remark: listed apart in the source

| Binder | Kd [2] | binding result [3] | other results |
| --- | --- | --- | --- |
| ETTDLYCYEQLNDSSEEEDE [E7 CR2 peptide (residues 18–37)] | 4.6 ± 0.2 µM |  | Kd [1]: 3.4 µM |
| PETTDLYCYEQLND[pS][pS]EEEDEIDGPAGQAEPDRAH (domain or fragment) [doubly-phosphorylated HPV16 ppE7(17–51)] |  | binds |  |
| B1 |  | binds |  |
| B2 |  | binds |  |
| MHGDTPTLHEYMLDLQPE-NH2 [E7 CR1 peptide (residues 1–18)] | 31 ± 2 µM |  | Kd [1]: 69 µM |
| B3 |  |  | Kd [4]: 0.079 µM |
| PETTDLYCYEQLNDSSEEEDEIDGPAGQAEPDRAH (domain or fragment) [HPV16 E7(17–51), unphosphorylated] | 1.8 ± 0.1 µM |  |  |
| B4 | 0.1 ± 0.01 µM |  |  |
